Assay: label from the status in PepcDB records

Sequence	protein production
MSLRAKLIWPILVFITAIFVASKGYTSYTAYQSSKHELVEQTRKLINNVSYSIKDALTTKNKRKAQTILADLIEQPNVSRVKLYDRANELFVLLEGSGESAPVPNQNERSKLDALGYALSAKFLYVLEPIIHEGHVIGSIRVTLSYIPIINAQHSFLKDAGVLLLILAAGGIIFYITIDRIILRPLLDLNGAIQDVTFGNASHVQIRHHSKDELGEVIHAFNRMMTKLRKREKQRQHSLATLEQKRAFSEEVIESIQYALVITDNLGTIIHSNAATQHIFQKTPEALENANIRDLIKTKMPNELSQILSRCLECDDIHLQNIDNEQQLSLTTRRLSNHGYLLFAIQDITEIEEAMNRQRVAGRVFEASQDGLIVLNHKGVITMVNPAVTKLVGLEIDQLVGQSFIQTIRWRKLQEMMPSIIESIENYGVWQGEVIEQNHLGLLVPMFARVNRIVKCENNGFYDLVIILTDLSNAKEMERLEYLAHHDALTGLANRSKFHLELEDLVQRSGYQRDEFAVLYLDLDGFKEINDTYGHDAGDEVLKRVADRLTSATRHSDLIARLSGDEFVMLVNPANQKVVTRIAEQLLESICAPIEYKGNELKVGVSIGVKLVGVNERDATRILKSADTAMYQAKKAGKGQAILMGCELQETV	failed
MSLRIDPLGGESLKNQEVKGKKSGKTSRVGESKKKEFFDILEDVKEDHFEKLLEEAVEEVIDSGNELVRSPTPSNLKRYKNAIKEFLKLIEKKIYKLAGSFDMNSGRARLHLVVEEVNEKLMDLTEKIMKNEWQTINLAARIEEINGLILNLYREGHHHHHH	not failed
MSLRQDILLNNNWNFRFSHQVQGDTRRVDLPHTWNAQDALAGKIDYKRGIGNYEKALYIRPEWKGKRLFLRFDGVNSIADVFINRKHIGEHRGGYGAFIFEITDLVKYGEKNSVLVRANNGEQLDIMPLVGDFNFYGGIYRDVHLLITDETCISPLDYASPGVYLVQEVVSPQEAKVCAKVNLSNRAADGTAELQVLVTDGTKVICKESRNVSLKQGADILEQLPLLIQKPRLWNGCEDPFMYQVSISLHKDGKQIDSVTQPLGLRYYHTDPDKGFFLNGKHLPLHGVCRHQDRAEVGNALRPQHHEEDVALMREMGVNAIRLAHYPQATYMYDLMDKHGIVTWAEIPFVGPGGYADKGFVDQASFRENGKQQLIELIRQHYNHPSICFWGLFNELKEVGDNPVEYVKELNALAKQEDPTRPTTSASNQDGNLNFITENIAWNRYDGWYGSTPKTLATFLDRTHKKHPELRIGISEYGAGASIYHQQDSLKQPSASGWWHPENWQTYYHMENWKIIAERPFVWGTFVWNMFDFGAAHRTEGDRPGINDKGLVTFDRKVRKDAFYFYKANWNKQEPMIYLAEKRCRLRYQPEQTFMAFTTAPEAELFVNGVSCGKQKADTYSTVVWKNVKLTSGENIIRVTTPGKKPLTDEVTVEYKEDREGHHHHHH	not failed
MSLSKTFLNELANQALTNPNDFTKGEKKQESFLLEYVSANPTGPLHIGHARGAVFGDTLTRLARHLGYKFNTEYYVNDAGNQIYLLGLSILLSVKESILHENVEYPEQYYKGEYIVDLAKEAFEKFGKEFFSEENIPSLADWAKDKMLVLIKQNLEQAKIKIDSYVSERSYYDALNATLESLKEHKGIYEQEGKIWLASSQKGDEKDRVIIREDGRGTYLAADIVYHKDKMSRGYGKCINIWGADHHGYIPRMKAAMEFLGFDSNNLEIILAQMVSLLKDGEPYKMSKRAGNFILMSDVVDEIGSDALRYIFLSKKCDTHLEFDISDLQKEDSSNPVYYINYAHARIHQVFAKAGKKIDDVMKADLQSLNQDGVNLLFEALNLKAVLNDAFEARALQKIPDYLKNLAANFHKFYNENKVVGSANENDLLKLFSLVALSIKTAFSLMGIEAKNKMEHEGHHHHHH	not failed
MSLSLPLFYAPDIEQSDRLPDDEAGHILRVLRMQAGDRLRLTDGRGSFFDAVIETADRKSCYVSVCGQESWQKPWRDRITIAIAPTKQSERMEWMLEKLVEIGVDEVVFIESEHSERRRIKAERLERIAISAMKQSLKASFPVIRVNIPIQTVIADTPKAAVRLIAYVDEAVRAEITQGRGYPSDFYHVGQDVLILIGPEGDFSPSEVESALLAGFAPVSLGESRLRTETAGLVACQWIHTLQACCRIGEGHHHHHH	not failed
MSLSNVQVNSSQRDEDSFIKGVKDCIPTLLGYLSIGIAAGVIQKTAGLSIAEITLMSLILYAGSGQFIAAGMIATSSSLTAIIITIFFVNLRHILLSAALAPYFRHLSPFRNMLVGSLLTDETFGVAISEAAKKKQISERWMHGLNITAYINWLVANLAGAFLAQWISNPEEFGLGFALPAMFIGILILTMLGRSTIKLDIIVAIIAVVIAVGSSFMLSSSMGVIVATIIASTIGMVVEKWK	failed

From a protein production outcome set (Wang et al. 2014)
